Tested on: Escherichia coli TOP10
Experiment: shrunken log2 fold change of peptide-encoding DNA abundance (4.5 h post-induction vs induction); higher = less antimicrobial activity (less host growth inhibition)
Conditions: time post-induction: 4.5 h; library: site-saturation at positions 5, 18, 19, 20
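Also: peptides expressed intracellularly from a pBAD plasmid library in pooled LB shake-flask culture, induced with 0.3% L-arabinose, DNA abundance read by NGS, three biological replicates, DESeq2 with apeglm shrinkage.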

| Sequence | shrunken log2 fold change |
| --- | --- |
| RRIRIRPPRLPRPRPRPAPDPRP | 0.248 |
| RRIRIRPPRLPRPRPRPAPFPRP | 0.271 |
| RRIRIRPPRLPRPRPRPAPWPRP | 0.0917 |
| RRIRIRPPRLPRPRPRPARCPRP | 0.0563 |
| RRIRIRPPRLPRPRPRPASIPRP | -0.361 |
| RRIRIRPPRLPRPRPRPASRPRP | -0.106 |
| RRIRIRPPRLPRPRPRPAVVPRP | -0.0892 |
| RRIRIRPPRLPRPRPRPAWKPRP | 0.123 |
| RRIRIRPPRLPRPRPRPAWNPRP | 0.146 |
| RRIRIRPPRLPRPRPRPCCWPRP | 0.0865 |
| RRIRIRPPRLPRPRPRPCDLPRP | -0.011 |
| RRIRIRPPRLPRPRPRPCDRPRP | -0.563 |
| RRIRIRPPRLPRPRPRPCDTPRP | -0.387 |
| RRIRIRPPRLPRPRPRPCGCPRP | -0.248 |
| RRIRIRPPRLPRPRPRPCHKPRP | -0.16 |
| RRIRIRPPRLPRPRPRPCIHPRP | -0.488 |
| RRIRIRPPRLPRPRPRPCIKPRP | -0.185 |
| RRIRIRPPRLPRPRPRPCIVPRP | -0.562 |
| RRIRIRPPRLPRPRPRPCLEPRP | -0.808 |
| RRIRIRPPRLPRPRPRPCPCPRP | -0.493 |
| RRIRIRPPRLPRPRPRPCQPPRP | -0.378 |
| RRIRIRPPRLPRPRPRPCQQPRP | -0.0169 |
| RRIRIRPPRLPRPRPRPCRQPRP | 0.112 |
| RRIRIRPPRLPRPRPRPCRSPRP | -0.365 |
| RRIRIRPPRLPRPRPRPCSVPRP | -0.466 |

| Sequence | shrunken log2 fold change |
| --- | --- |
| RRIRIRPPRLPRPRPRPCTMPRP | -0.0242 |
| RRIRIRPPRLPRPRPRPCVWPRP | -0.242 |
| RRIRIRPPRLPRPRPRPCWIPRP | -0.222 |
| RRIRIRPPRLPRPRPRPCWVPRP | -0.451 |
| RRIRIRPPRLPRPRPRPCYIPRP | -0.27 |
| RRIRIRPPRLPRPRPRPCYSPRP | -0.0549 |
| RRIRIRPPRLPRPRPRPDAQPRP | -0.0523 |
| RRIRIRPPRLPRPRPRPDCAPRP | -0.0601 |
| RRIRIRPPRLPRPRPRPDDHPRP | 0.07 |
| RRIRIRPPRLPRPRPRPDENPRP | 0.108 |
| RRIRIRPPRLPRPRPRPDFLPRP | -0.725 |
| RRIRIRPPRLPRPRPRPDGAPRP | -0.237 |
| RRIRIRPPRLPRPRPRPDGEPRP | 0.0147 |
| RRIRIRPPRLPRPRPRPDIAPRP | -0.659 |
| RRIRIRPPRLPRPRPRPDIQPRP | -0.37 |
| RRIRIRPPRLPRPRPRPDIRPRP | -0.00601 |
| RRIRIRPPRLPRPRPRPDKPPRP | -0.0335 |
| RRIRIRPPRLPRPRPRPDMKPRP | -0.0106 |
| RRIRIRPPRLPRPRPRPDMWPRP | -0.271 |
| RRIRIRPPRLPRPRPRPDNDPRP | -0.115 |
| RRIRIRPPRLPRPRPRPDNHPRP | -0.0565 |
| RRIRIRPPRLPRPRPRPDNKPRP | -0.703 |
| RRIRIRPPRLPRPRPRPDNNPRP | -0.376 |
| RRIRIRPPRLPRPRPRPDPNPRP | -0.546 |
| RRIRIRPPRLPRPRPRPDPSPRP | -0.0293 |

| Sequence | shrunken log2 fold change |
| --- | --- |
| RRIRIRPPRLPRPRPRPDQKPRP | -0.0112 |
| RRIRIRPPRLPRPRPRPDRDPRP | -0.0646 |
| RRIRIRPPRLPRPRPRPDSDPRP | -0.0273 |
| RRIRIRPPRLPRPRPRPDYTPRP | -0.00167 |
| RRIRIRPPRLPRPRPRPDYWPRP | -0.195 |
| RRIRIRPPRLPRPRPRPEAEPRP | 0.677 |
| RRIRIRPPRLPRPRPRPEAHPRP | 0.0771 |
| RRIRIRPPRLPRPRPRPEEMPRP | -0.416 |
| RRIRIRPPRLPRPRPRPEFRPRP | 0.239 |
| RRIRIRPPRLPRPRPRPEGQPRP | -0.0492 |
| RRIRIRPPRLPRPRPRPEGWPRP | 0.497 |
| RRIRIRPPRLPRPRPRPEHHPRP | -0.206 |
| RRIRIRPPRLPRPRPRPEHMPRP | -0.0778 |
| RRIRIRPPRLPRPRPRPEIQPRP | -0.171 |
| RRIRIRPPRLPRPRPRPEIRPRP | -0.0172 |
| RRIRIRPPRLPRPRPRPEKDPRP | -0.0191 |
| RRIRIRPPRLPRPRPRPEKQPRP | 0.0192 |
| RRIRIRPPRLPRPRPRPELCPRP | 0.0211 |
| RRIRIRPPRLPRPRPRPELFPRP | 0.23 |
| RRIRIRPPRLPRPRPRPEMIPRP | -0.0257 |
| RRIRIRPPRLPRPRPRPEMKPRP | -0.037 |
| RRIRIRPPRLPRPRPRPENKPRP | -0.663 |
| RRIRIRPPRLPRPRPRPERPPRP | 0.285 |
| RRIRIRPPRLPRPRPRPESHPRP | -0.0755 |
| RRIRIRPPRLPRPRPRPETFPRP | -0.202 |

— the supplement of paper PMC9112550, “Optimization of the antimicrobial peptide Bac7 by deep mutational scanning” (BMC Biology, 2022)
